Results on 1 molecule are retold here after US20170291954A1.

For orientation: EC50 means the concentration at which the effect is half-maximal.

The target in test [1] is GPC3-GST fusion protein. Briefly: ELISA, GPC3-GST fusion protein as antigen at 0.5 ug/ml. (An ELISA detects its analyte on a solid surface through an enzyme-linked reagent.)
Test [2] deals with GPC3-GST fusion protein. Briefly: ELISA, GPC3-GST fusion protein as antigen at 1 ug/ml.

Chain of GPC3-GST fusion protein (P51654 368-548): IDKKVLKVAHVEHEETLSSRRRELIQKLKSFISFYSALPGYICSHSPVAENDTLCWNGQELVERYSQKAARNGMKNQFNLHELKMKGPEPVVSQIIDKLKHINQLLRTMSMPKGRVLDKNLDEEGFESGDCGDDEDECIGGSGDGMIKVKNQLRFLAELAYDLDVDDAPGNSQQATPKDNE

B1: 4E5 scFv, secreted from yeast as a fusion protein and purified on nickel-HIS beads (scFv, part only; not given: linker and fusion partner, not shown: large carriers)
scFv, part: QVQLQQSGAELVRPGASVKLSCKASGYTFNDYEMHWVKQTPVHGLKWIGALEPKTGDTAYSQKFKGKATLTADKSSSTAYMELRSLTSEDSAVYYCTSCYYYTYSGQGTLVTVSADVVMTQTPLSLPVSLGDQASISCRSSQSLVHSNGNTYLHWYLQKPGQSPKLLIYKVSNRFSGVPDRFSGSGSGTDFTLKISRVEAEDLGVYFCSQNTPVPPKFGSGTKLEIK
With B1, the EC50 with GPC3-GST fusion protein [1] turned out to be 52 nM; with GPC3-GST fusion protein [2] it was 43.1 nM.
